Data on four molecules can be found in patent US10947270B2, “Targeted prodrug cytosine deaminase fusion carrier and application thereof” (National Yang-Ming University, priority 2015, dated 2021).

The conditions of data set [1]: literature, Biochemistry 2004, 43, 8957-8964; cited from earlier work.
Data set [2] deals with U87MG, HUVEC and MCF-7 cells. In words: Immunofluorescence of binding and distribution of EcCD fusion proteins in cells. Format: cell-based, human. The conditions noted are these: 37° C., 2 hours. The procedure:
FIGS. 15A-15C show the binding and distribution of EcCD fusion proteins in U87MG, HUVEC and MCF-7 cell strain. The immunofluorescence staining is used to observe and experiment the EcCD fusion protein, which are respectively acted with U87MG cells in FIG. 15A, HUVEC cells in FIG. 15B and MCF-7 cells in FIG. 15C for 2 hours at 37° C., then fixed with 2% para-formadehyde, the fixed cells are first permeabilized with 0.1% Triton X-100 for 10 minutes, after that, cultured with 1% BSA blocking (dissolved in PBS containing Ca^2+, Mg^2+) for 1 hour at room temperature, then add a 1st antibody (Rabbit anti-His^6tag, Mouse anti-human CD51/61αvβ3 integrin), and then add a 2nd antibody (Anti-rabbit IgG-CF640R, Anti-mouse IgG-Alexa488), the protein distribution is observed by conjugated fluorescence microscope. (Green signal: αvβ3 integrin; red signal: anti-His^6tag; blue signal: Hoechst 33342 cell nucleus stain) (Scale bars: 20 μm)
Immunofluorescence is used to observe the distribution of the protein bound with cell in the cell. U87MG, HUVEC and MCF-7 cells act with culture medium containing EcCD_WT, RGD4C-EcCD_WT, EcCD_D314A and RGD4C-EcCD_D314A proteins at 37° C. for 2 hours, stain the cell, and observe protein distribution by the conjugated fluorescence microscopy.

A short description of data set [3]: Enzyme kinetic analysis of EcCD series fusion proteins, substrate 5-FC. The note with it: for Kcat/Km higher than that of the corresponding WT protein: substrate 5-FC. Format: biochemical. The text has this: FIGS. 11A-11D show the activity and kinetics analysis of EcCD series fusion protein enzymes, and the EcCD series proteins are combined with 5-FC at different concentrations for reaction. Respectively calculate the 5-FU formation reaction rate shown in FIG. 11A, 5-FC consumption reaction rate shown in FIG. 10B, uracil formation reaction rate shown in FIG. 10C and cytosine consumption reaction rate shown in FIG. 10D, substitute Michaelis-Menten formula, and calculate the base mass (Kcat) and Km value catalyzed by each mol enzyme in unit time.

The nature of data set [4]: Relative substrate selectivity of cytosine deaminase enzyme for 5-FC and cytosine (formula 1). The conditions noted are these: for [Kcat/Km(5-FC)]/{[Kcat/Km(cytosine)] + [Kcat/Km(5-FC)]}: relative substrate selectivity to 5-FC. Format: biochemical. An excerpt:
Evaluation of the relative substrate selectivity of cytosine deaminase enzyme for 5-FC and Cytosine can be expressed by the following formula 1,
The higher the value, the higher the selectivity of the enzyme to the 5-FC substrate.

Data set [5] is described as follows: Enzyme kinetic analysis of EcCD series fusion proteins, substrate cytosine. Format: biochemical. The note with it: for Kcat/Km lower than that of the corresponding WT protein: substrate cytosine. The text has this: FIGS. 11A-11D show the activity and kinetics analysis of EcCD series fusion protein enzymes, and the EcCD series proteins are combined with 5-FC at different concentrations for reaction. Respectively calculate the 5-FU formation reaction rate shown in FIG. 11A, 5-FC consumption reaction rate shown in FIG. 10B, uracil formation reaction rate shown in FIG. 10C and cytosine consumption reaction rate shown in FIG. 10D, substitute Michaelis-Menten formula, and calculate the base mass (Kcat) and Km value catalyzed by each mol enzyme in unit time. […]

For a further data set, the system named is U87MG, HUVEC cells. In words: RGDfv peptide competition of EcCD fusion protein binding to cells. The note with it: RGDfv peptide at 10-fold relative concentration. Type of data set: cell-based, human. As for the experimental part:
FIGS. 14A-14E show the binding activity and specificity test of EcCD fusion protein and U87MG, HUVEC and MCF-7 cell strain. […] (***compared to the untreated RGDfv group, P value<0.001, indicating a statistically significant difference)
It is confirmed from the above experimental results that the EcCD series protein fused to the RGD4C peptide has the binding activity with the expressing αvβ3 integrin cell strain, and the binding has the specificity of the RGD4C peptide and αvβ3 integrin of the cell expression, and also confirmed that the D314A mutation will not affect the binding activity of the RGD4C peptide and αvβ3 integrin.

In another data set the target is αvβ3 integrin (Homo sapiens, UniProt P05106+P06756). As to the kind of experiment: ELISA binding of EcCD series fusion protein and αvβ3 integrin. The text has this: FIGS. 13A-13B show the binding activity and specificity test of EcCD fusion protein and αvβ3 integrin receptor. […] (***compared with untreated RGDfv group, P value<0.001, indicating a statistically significant difference)
To confirm the binding ability of RGD4C peptide and αvβ3 integrin, the affinity of the protein and αvβ3 integrin is confirmed by ELISA method. […] This experiment confirms that RGD4C-EcCD_WT and RGD4C-EcCD_D314A have the binding activity of αvβ3 integrin, and this binding has the specificity of RGD4C peptide αvβ3 integrin.

Where [6] appears, read: RGDfv peptide at 10-fold concentration.
[7] abbreviates: RGDfv peptide at same concentration.
The mark [8] stands for this setting: 5-FC consumption (Table 5), listed as RGD4C-EcCDWT.
Setting [9] is: 5-FU generation, listed as RGD4C-EcCDWT.
Setting [10] is: cytosine consumption, listed as RGD4C-EcCDWT.
[11] abbreviates: uracil generation, listed as RGD4C-EcCDWT.

Where a chain is given by its changes, count along the chain named. Names may count otherwise. “And” between values parts separate entries of the source, which are not always exact repeats. Equal values may be shown once. Read-outs that look alike come from different tables or passages of the source.

Broadly, the Km is the concentration of substrate that gives half-maximal velocity.

Sequence of αvβ3 integrin (P06756 31-889 limits assumed): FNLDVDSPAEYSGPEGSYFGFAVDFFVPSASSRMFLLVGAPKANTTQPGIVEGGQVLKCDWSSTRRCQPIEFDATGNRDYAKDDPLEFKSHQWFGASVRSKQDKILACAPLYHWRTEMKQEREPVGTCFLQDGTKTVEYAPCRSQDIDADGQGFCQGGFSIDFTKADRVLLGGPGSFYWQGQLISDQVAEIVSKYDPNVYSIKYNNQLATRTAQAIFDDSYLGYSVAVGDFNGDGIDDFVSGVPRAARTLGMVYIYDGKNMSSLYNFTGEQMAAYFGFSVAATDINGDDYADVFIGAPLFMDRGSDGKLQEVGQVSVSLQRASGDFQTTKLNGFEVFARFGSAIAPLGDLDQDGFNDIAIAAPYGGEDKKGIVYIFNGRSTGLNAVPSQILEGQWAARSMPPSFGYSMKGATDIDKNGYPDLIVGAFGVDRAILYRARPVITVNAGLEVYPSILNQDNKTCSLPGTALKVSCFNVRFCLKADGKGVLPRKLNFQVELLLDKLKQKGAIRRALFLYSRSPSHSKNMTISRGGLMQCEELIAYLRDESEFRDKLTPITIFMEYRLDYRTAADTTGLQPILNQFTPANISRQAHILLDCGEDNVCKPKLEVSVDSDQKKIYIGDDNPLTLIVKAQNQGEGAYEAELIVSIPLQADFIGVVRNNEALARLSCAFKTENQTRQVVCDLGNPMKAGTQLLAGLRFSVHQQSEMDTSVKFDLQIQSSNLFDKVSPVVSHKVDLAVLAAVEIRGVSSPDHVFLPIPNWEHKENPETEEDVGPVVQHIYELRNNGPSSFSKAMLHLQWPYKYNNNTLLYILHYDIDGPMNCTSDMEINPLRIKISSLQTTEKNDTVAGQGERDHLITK
Sequence of αvβ3 integrin (P06756 891-1048 partner limits assumed): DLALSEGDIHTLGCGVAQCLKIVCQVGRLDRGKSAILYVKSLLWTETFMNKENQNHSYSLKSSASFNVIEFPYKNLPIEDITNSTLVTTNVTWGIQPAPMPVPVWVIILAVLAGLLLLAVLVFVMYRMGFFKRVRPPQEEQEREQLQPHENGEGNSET
Sequence of αvβ3 integrin (P05106 27-788): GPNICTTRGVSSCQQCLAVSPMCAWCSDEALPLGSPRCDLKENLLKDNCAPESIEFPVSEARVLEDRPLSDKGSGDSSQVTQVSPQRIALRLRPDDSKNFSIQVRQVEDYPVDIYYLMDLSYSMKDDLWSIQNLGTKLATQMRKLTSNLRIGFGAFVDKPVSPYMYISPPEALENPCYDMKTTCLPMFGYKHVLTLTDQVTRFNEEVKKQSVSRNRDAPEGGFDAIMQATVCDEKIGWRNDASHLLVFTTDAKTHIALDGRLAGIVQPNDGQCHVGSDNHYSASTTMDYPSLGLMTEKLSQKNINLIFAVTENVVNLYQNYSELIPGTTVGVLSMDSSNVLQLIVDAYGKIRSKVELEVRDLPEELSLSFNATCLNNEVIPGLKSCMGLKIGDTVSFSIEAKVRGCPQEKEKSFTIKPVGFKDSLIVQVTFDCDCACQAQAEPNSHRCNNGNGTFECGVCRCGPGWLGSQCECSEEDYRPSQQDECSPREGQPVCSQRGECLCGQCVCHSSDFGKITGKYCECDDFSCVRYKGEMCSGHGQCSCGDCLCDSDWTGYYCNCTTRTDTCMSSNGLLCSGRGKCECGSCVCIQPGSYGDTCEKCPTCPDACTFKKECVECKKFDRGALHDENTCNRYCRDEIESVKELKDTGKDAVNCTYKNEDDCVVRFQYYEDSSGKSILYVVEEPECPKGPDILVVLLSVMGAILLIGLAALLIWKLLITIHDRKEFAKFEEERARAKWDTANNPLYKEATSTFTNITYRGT

B1: EcCD_WT: E. coli. cytosine deaminase (EcCD), wild type, without target molecule (protein)
chain: MSNNALQTIINARLPGEEGLWQIHLQDGKISAIDAQSGVMPITENSLDAEQGLVIPPFVEPHIHLDTTQTAGQPNWNQSGTLFEGIERWAERKALLTHDDVKQRAWQTLKWQIANGIQHVRTHVDVSDATLTALKAMLEVKQEVAPWIDLQIVAFPQEGILSYPNGEALLEEALRLRADVVGAIPHFEFTREYGVESLHKTFALAQKYDRLIDVHCDEIDDEQSRFVETVAALAHHEGMGARVTASHTTAMHSYNGAYTSRLFRLLKMSGINFVANPLVNIHLQGRFDTYPKRRGITRVKEMLESGINVCFGHDDVFDPWYPLGTANMLQVLHMGLHVCQLMGYGQINDGLNLITHHSARTLNLQDYGIAAGNSANLIILPAENGFDALRRQVPVRYSVRGGKVIASTQPAQTTVYLEQPEAIDYKRLEHHHHHH
modifications: EcCD_WT
notes: E. coli. cytosine deaminase (EcCD), wild type, without target molecule
For B1, the “[Kcat/Km(5-FC)]/{[Kcat/Km(cytosine)] + [Kcat/Km(5-FC)]}” value (from here on “[Kcat/Km(5-FC)]/{[Kcat/Km(cytosine)] +”) in data set [1] was 0.027; in data set [4], 0.032; in data set [4] (listed as EcCDWT), 0.033. The “binding with cells” value in data set [2] is “do not have the ability of binding with U87MG and HUVEC cells”. Also, the Kcat in data set [3] (5-FC consumption (Table 5)) was 9.2 ± 0.8 s⁻¹ and 8.8 ± 0.8 s⁻¹; in data set [3] (5-FU generation), 8.8 ± 0.9 s⁻¹ and 9.2 ± 0.6 s⁻¹; in data set [5] (cytosine consumption), 132.0 ± 5.0 s⁻¹; in data set [5] (uracil generation) it was 157.3 ± 2.4 s⁻¹. Also, the Michaelis-Menten constant (Km) in data set [3] (5-FC consumption (Table 5)) is 2800 µM and 2700 µM; in data set [3] (5-FU generation), 2900 ± 800 µM; in data set [5] (cytosine consumption), 1300 ± 100 µM; in data set [5] (uracil generation), 1600 µM and 1700 µM.

B2: EcCD_D314A: E. coli. cytosine deaminase (EcCD) mutant D314A, without target molecule (protein)
chain: B1 chain with D315A
modifications: EcCD_D314A
notes: E. coli. cytosine deaminase (EcCD) mutant D314A, without target molecule
B2: the “[Kcat/Km(5-FC)]/{[Kcat/Km(cytosine)] +” value in data set [1] is 0.513; in data set [4], 0.558 and 0.535. For the same molecule, the “binding with cells” value in data set [2] is “do not have the ability of binding with U87MG and HUVEC cells”. Besides, the Kcat in data set [3] (5-FC consumption (Table 5)) was 35.1 ± 1.7 s⁻¹ and 36.2 ± 1.5 s⁻¹; in data set [3] (5-FU generation), 36.2 ± 1.8 s⁻¹ and 35.4 ± 0.8 s⁻¹; in data set [5] (cytosine consumption) it was 22.3 ± 1.6 s⁻¹; in data set [5] (uracil generation) it was 24.5 ± 1.1 s⁻¹. The Michaelis constant (Km) was 3800 µM and 4000 µM in data set [3] (5-FC consumption (Table 5)); 3900 ± 600 µM in data set [3] (5-FU generation); 2600 ± 400 µM in data set [5] (cytosine consumption); 3000 µM and 3100 µM in data set [5] (uracil generation). The “Kcat/Km higher than that of the corresponding WT protein” value in data set [3] is “about 3.1 times”. Moreover, the “relative substrate selectivity to 5-FC higher than the corresponding WT protein” value in data set [4] is “about 17.4 times”. The “Kcat/Km lower than that of the corresponding WT protein” value in data set [5] was “about 12.5 times”.

B3: RGD4C-EcCD_WT: targeted prodrug enzyme fusion protein (SEQ ID NO: 19) (protein)
chain: MGCDCRGDCFCMSNNALQTIINARLPGEEGLWQIHLQDGKISAIDAQSGVMPITENSLDAEQGLVIPPFVEPHIHLDTTQTAGQPNWNQSGTLFEGIERWAERKALLTHDDVKQRAWQTLKWQIANGIQHVRTHVDVSDATLTALKAMLEVKQEVAPWIDLQIVAFPQEGILSYPNGEALLEEALRLRADVVGAIPHFEFTREYGVESLHKTFALAQKYDRLIDVHCDEIDDEQSRFVETVAALAHHEGMGARVTASHTTAMHSYNGAYTSRLFRLLKMSGINFVANPLVNIHLQGRFDTYPKRRGITRVKEMLESGINVCFGHDDVFDPWYPLGTANMLQVLHMGLHVCQLMGYGQINDGLNLITHHSARTLNLQDYGIAAGNSANLIILPAENGFDALRRQVPVRYSVRGGKVIASTQPAQTTVYLEQPEAIDYKRLEHHHHHH
modifications: RGD4C_EcCD_WT
Regarding B3, the “inhibition of binding by RGDfv peptide competition” value in the data set on U87MG, HUVEC cells was “about 50%”. Further, the “inhibition of binding capacity by RGDfv peptide” value is given as “about 80%” with αvβ3 integrin (setting [6]) and “about 30%” in the data set with αvβ3 integrin (setting [7]). In addition, the “binding with cells” value in data set [2] was “have the ability of binding with U87MG and HUVEC cells”. The “internalization” value in data set [2] is given as “will enter the internalization”. The Kcat in data set [3] (5-FC consumption (Table 5)) was 10.7 ± 0.5 s⁻¹; in data set [3] (setting [8]), 10.9 ± 0.5 s⁻¹; in data set [3] (5-FU generation), 10.8 ± 0.6 s⁻¹; in data set [3] (setting [9]) it was 10.8 ± 0.5 s⁻¹; in data set [5] (cytosine consumption), 148.9 ± 4.7 s⁻¹; in data set [5] (setting [10]) it was 143.9 ± 5.1 s⁻¹. In addition, the Kcat in data set [5] (uracil generation) came out at 141.7 ± 5.5 s⁻¹; in data set [5] (setting [11]), 150.8 ± 4.4 s⁻¹. Also, the Km was determined as 2300 ± 400 µM in data set [3] (5-FC consumption (Table 5)); 2400 ± 400 µM in data set [3] (setting [8]); 2300 ± 500 µM in data set [3] (5-FU generation); 2400 ± 500 µM in data set [3] (setting [9]); 1700 ± 200 µM in data set [5] (cytosine consumption); 1600 ± 200 µM in data set [5] (setting [10]). Further, the results for the Km in data set [5] (uracil generation) and in data set [5] (setting [11]) were 1500 ± 200 µM and 1700 ± 100 µM, respectively. For the same molecule, the figures for the “[Kcat/Km(5-FC)]/{[Kcat/Km(cytosine)] +” value in data set [4] and in data set [4] (listed as RGD4C- EcCDWT) were 0.047 and 0.048, respectively.

B4: RGD4C-EcCD_D314A: targeted prodrug enzyme fusion protein (SEQ ID NO: 20) (protein)
chain: B3 chain with D326A
modifications: RGD4C_EcCD_D314A
For B4, the “inhibition of binding by RGDfv peptide competition” value with U87MG, HUVEC cells is on record as “about 50%”. The “inhibition of binding capacity by RGDfv peptide” value with αvβ3 integrin (setting [6]) is reported as “about 80%”; in the data set with αvβ3 integrin (setting [7]) it was “about 30%”. For the same molecule, in data set [2], the “binding with cells” value is “have the ability of binding with U87MG and HUVEC cells”. Further, in data set [2], the “internalization” value is reported as “will enter the internalization”. In addition, the Kcat in data set [3] (5-FC consumption (Table 5)) is 38.6 ± 1.0 s⁻¹ and 39.1 ± 1.0 s⁻¹; in data set [3] (5-FU generation), 39.4 ± 1.1 s⁻¹ and 38.4 ± 0.8 s⁻¹; in data set [5] (cytosine consumption), 17.7 ± 1.3 s⁻¹; in data set [5] (uracil generation), 21.7 ± 4.8 s⁻¹. Moreover, the Km in data set [3] (5-FC consumption (Table 5)) was 3500 ± 200 µM; in data set [3] (5-FU generation), 3500 µM and 3400 µM; in data set [5] (cytosine consumption) it was 3000 µM and 2900 µM; in data set [5] (uracil generation), 3800 ± 1700 µM. Also, in data set [3], the “Kcat/Km higher than that of the corresponding WT protein” value is given as “about 2.4 times”. Besides, the “relative substrate selectivity to 5-FC higher than the corresponding WT protein” value in data set [4] is “about 13.8 times”. For the same molecule, the results for the “[Kcat/Km(5-FC)]/{[Kcat/Km(cytosine)] +” value in data set [4] and in data set [4] (listed as RGD4C- EcCD_D314A) were 0.648 and 0.664, respectively. Besides, in data set [5], the “Kcat/Km lower than that of the corresponding WT protein” value was “about 15.5 times”.
